Binding signal data for 1 substance are collected here from paper PMC4900678.

In this series the test system is Rrp5_C8;Rok1 (Saccharomyces cerevisiae;Saccharomyces cerevisiae). In words: glycerol gradient sedimentation. As to conditions: EMSA: 200 mM KCl, 10 mM MgCl2, 40 mM HEPES/KOH pH 7.5, 10 mM Mg-AMPPCP or 1 mM Mg-ADP, 12 min 25 C, native gel 4 C. 40S binding: 200 mM KOAc, 20 mM HEPES/KOH …. Background: A gel shift assay detects complexes by their altered migration in electrophoresis.

As for mature 40S ribosomal subunit (18S rRNA), the binding signal by setting is: (400 uM ADP, 98% of Rrp5 free) 2 % Rrp5 bound; (4 mM AMPPCP) 15 % Rrp5 bound.
